{"source": "patent US6864363B2", "about": "(priority 2000, dated 2005)", "molecules": {"B1": {"name": "DPP-7: P. gingivalis dipeptidylpeptidase-7, a 76 kDa serine protease purified from the membrane fraction (protein, listed as Porphyromonas gingivalis)", "chain": "MQMKLKSILLGAALLLGASGVAKADKGMWLLNELNQENLDRMRELGFTLPLDSLYSFDKPSIANAVVIFGGGCTGITVSDQGLIFTNHHCGYGAIQSQSTVDHDYLRDGFVSRTMGEELPIPGLSVKYLRKIVKVTDKVEGQLKGITDEMERLRKAQEVCQELAKKENADENQLCIVEPFYSNNEYFLIVYDVFKDVRMVFAPPSSVGKFGGDTDNWMWPRHTGDFSVFRVYAGADNRPAEYSKDNKPYKPVYFAAVSMQGYKADDYAMTIGFPGSTDRYLTSWGVEDRIENENNPRIEVRGIKQGIWKEAMSADQATRIKYASKYAQSANYWKNSIGMNRGLARLDVIGRKRAEERAFADWIRKNGKSAVYGDVLSSLEKAYKEGAKANREMTYLSETLFGGTEVVRFAQFANALATNPDAHAGILKSLDDKYKDYLPSLDRKVLPAMLDIVRRRIPADKLPDIFKNVIDKKFKGDTKKYADFVFDKSVVPYSDKFHAMLKSMDKEKFAKAIEKDPAVELSKSVIAAARAIQADAMANAYAIEKGKRLFFAGLREMYPGRALPSDANFTMRMSYGSIKGYEPQDGAWYNYHTTGKGVLEKQDPKSDEFAVQENILDLFRTKNYGRYAENGQLHIAFLSNNDITGGNSGSPVFDKNGRLIGLAFDGNWEAMSGDIEFEPDLQRTISVDIRYVLFMIDKWGQCPRLIQELKLI"}}, "key": {"P. gingivalis DPP-7": {"system": "P. gingivalis DPP-7", "test": "Endopeptidase activity of DPP-7 on protein substrates and plasma inhibitors", "format": "biochemical, Porphyromonas gingivalis"}, "[1]": {"test": "pH optimum and stability of purified DPP-7 (activity against H-Ala-Phe-pNA)", "format": "biochemical, Porphyromonas gingivalis", "procedure": "Kinetic Analysis—Routinely, the dipeptidylpeptidase amidolytic activity was measured with H-Ala-Phe-pNA (1 mM) in 0.2 M HEPES, pH 7.8 at 37° C. The reaction was followed for specific time intervals in a thermostated ELISA reader (SpectraMax, Applied Biosystem) and the release of p-nitroaniline was monitored at 405 nm. Other p-nitroanilide substrates were used in the same manner. For inhibition studies, the enzyme was first preincubated with an inhibitor for 15 minutes at 37° C., substrate added, and residual activity recorded. The initial steady-state velocity (v0) was determined by continuous assay for the range of substrate concentrations (100 nM to 1 mM). Km and Vmax were determined by hyperbolic regression of the kinetic data using the software package Hyper Version 1.02 obtained from Dr. J. S. Easterby (University of Liverpool, UK).\npH Optimum and Stability—Purified DPP-7 was active against H-Ala-Phe-pNA over a broad pH range, from neutral to basic pH (6.5-9.0) (FIG. 3). This activity also changed with the ionic strength of the buffer, reaching 200% at 0.5 M NaCl concentration in 100 mM HEPES, pH 8.0. DPP-7 was stable in 0.2 M HEPES, pH 8.0, for one week at 4° C. […] After 3 hours incubation at either room temperature or 37° C., activity was reduced to 62% and 20%, respectively. The optimum temperature for the hydrolysis of H-Ala-Phe-pNA was determined to be 43° C."}}, "data": [{"molecule": "insulin β chain", "values": [{"measurement": "endopeptidase activity of DPP-7 on protein substrate", "setting": "P. gingivalis DPP-7", "value": "did not show any endopeptidase activity"}]}, {"molecule": "gelatin", "values": [{"measurement": "endopeptidase activity of DPP-7 on protein substrate", "setting": "P. gingivalis DPP-7", "value": "did not show any endopeptidase activity"}]}, {"molecule": "B1", "values": [{"measurement": "optimum temperature for the hydrolysis of H-Ala-Phe-pNA", "setting": "[1]", "value": 43, "unit": "°C"}, {"measurement": "stability", "setting": "[1]; 0.2 M HEPES, pH 8.0, one week at 4° C.", "value": "stable"}, {"measurement": "activity with ionic strength of the buffer", "setting": "[1]; 0.5 M NaCl in 100 mM HEPES, pH 8.0", "value": 200, "unit": "%"}, {"measurement": "activity remaining after incubation", "setting": "[1]; 3 hours at 37° C.", "value": 20, "unit": "%"}, {"measurement": "activity remaining after incubation", "setting": "[1]; 3 hours at room temperature", "value": 62, "unit": "%"}, {"measurement": "stability, loss of activity", "setting": "[1]; kept frozen at −80° C. for one month", "value": "no appreciable loss of activity"}]}]}
